Laboratory results taken from publication PMC7660097.

Key:
[1] = target: human fibronectin (human); test: ELISA; microplate ligand-binding assay, semi-quantitative: 3 pmol human protein immobilised per MaxiSorp well, blocked with 3% BSA; biotin-labeled enolase 10-500 nM in PBS, 1.5 h, 37 °C; detection with SA-HRP/TMB; BSA-only wells subtracted
[2] = target: human plasminogen (human); test: as above
[3] = target: human vitronectin (human) (UniProt P04004); test: as above
[4] = target: C. albicans cytosolic enolase (C. albicans) (UniProt P30575); test: ELISA; competition in a microplate: VTR immobilised (3 pmol per well); 40 nM biotinylated C. albicans enolase and 400 nM unlabeled HPG added together in PBS, 1.5 h, 37 °C; SA-HRP/TMB; also with 5 mM Mg2+ (no effect)
[5] = target: C. albicans cell surface-exposed enolase (C. albicans) (UniProt P30575); test: SPR; BIACORE 3000; enolase amine-coupled to a CM5 chip (about 300 RU); human protein as analyte (40-750 nM or 75-750 nM), 30 µL/min, 25 °C, 10 mM HEPES, 150 mM NaCl, 0.005% P20, pH 7.4; 1:1 Langmuir global fit with baseline drift and local Rmax; regeneration 1 M NaCl
[6] = target: C. albicans cytosolic enolase (C. albicans) (UniProt P30575); test: as above
[7] = target: C. tropicalis cytosolic enolase (C. tropicalis) (UniProt C5MD83); test: as above

Sequence of human vitronectin (human) (P04004 20-478): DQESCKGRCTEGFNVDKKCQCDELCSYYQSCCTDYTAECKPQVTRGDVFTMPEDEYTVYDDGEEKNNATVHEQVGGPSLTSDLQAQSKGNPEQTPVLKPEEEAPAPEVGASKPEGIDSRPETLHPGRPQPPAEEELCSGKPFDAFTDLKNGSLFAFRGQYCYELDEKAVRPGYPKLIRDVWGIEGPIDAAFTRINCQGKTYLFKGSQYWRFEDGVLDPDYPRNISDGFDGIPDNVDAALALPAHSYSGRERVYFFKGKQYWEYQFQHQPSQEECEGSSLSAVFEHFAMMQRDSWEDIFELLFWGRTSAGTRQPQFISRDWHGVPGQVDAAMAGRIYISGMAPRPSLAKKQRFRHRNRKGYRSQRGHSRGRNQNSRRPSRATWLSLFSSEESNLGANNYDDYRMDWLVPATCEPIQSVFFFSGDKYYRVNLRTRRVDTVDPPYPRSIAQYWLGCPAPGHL

Substance | reduction in binding compared to R-Eno [1] | reduction in binding compared to R-Eno [2] | reduction in binding compared to R-Eno [3] | reduction of the binding of biotinylated enolase to immobilized VTR [4] | Kd [5] | koff [5] | kon [5] | Kd [6] | koff [6] | kon [6] | Kd [7] | koff [7] | kon [7]
recombinant C. albicans enolase with the 235-255 sequence of S. cerevisiae enolase (R-Enosc) (from UniProt P30575 1-440) (enzyme) | > 50% | > 50% | > 50% | – | – | – | – | – | – | – | – | – | –
human plasminogen (natural protein) | – | – | – | 50% | 120 nM | 0.0626 s⁻¹ | 522000 M⁻¹ s⁻¹ | 257 nM | 0.0693 s⁻¹ | 270000 M⁻¹ s⁻¹ | 253 nM | 0.0146 s⁻¹ | 57700 M⁻¹ s⁻¹
human fibronectin (natural protein) | – | – | – | – | 36.8 nM | 0.00222 s⁻¹ | 60300 M⁻¹ s⁻¹ | 42.8 nM | 0.0277 s⁻¹ | 647000 M⁻¹ s⁻¹ | 51.8 nM | 0.00284 s⁻¹ | 54800 M⁻¹ s⁻¹
